Where a chain is given by its changes, count along the chain named.
T1: human CDCP1 on tumor cells (human, UniProt Q9H5V8 30-836)
T1 construct: whole, on cells; cell line is named under assay or readout
T1 sequence (looked up): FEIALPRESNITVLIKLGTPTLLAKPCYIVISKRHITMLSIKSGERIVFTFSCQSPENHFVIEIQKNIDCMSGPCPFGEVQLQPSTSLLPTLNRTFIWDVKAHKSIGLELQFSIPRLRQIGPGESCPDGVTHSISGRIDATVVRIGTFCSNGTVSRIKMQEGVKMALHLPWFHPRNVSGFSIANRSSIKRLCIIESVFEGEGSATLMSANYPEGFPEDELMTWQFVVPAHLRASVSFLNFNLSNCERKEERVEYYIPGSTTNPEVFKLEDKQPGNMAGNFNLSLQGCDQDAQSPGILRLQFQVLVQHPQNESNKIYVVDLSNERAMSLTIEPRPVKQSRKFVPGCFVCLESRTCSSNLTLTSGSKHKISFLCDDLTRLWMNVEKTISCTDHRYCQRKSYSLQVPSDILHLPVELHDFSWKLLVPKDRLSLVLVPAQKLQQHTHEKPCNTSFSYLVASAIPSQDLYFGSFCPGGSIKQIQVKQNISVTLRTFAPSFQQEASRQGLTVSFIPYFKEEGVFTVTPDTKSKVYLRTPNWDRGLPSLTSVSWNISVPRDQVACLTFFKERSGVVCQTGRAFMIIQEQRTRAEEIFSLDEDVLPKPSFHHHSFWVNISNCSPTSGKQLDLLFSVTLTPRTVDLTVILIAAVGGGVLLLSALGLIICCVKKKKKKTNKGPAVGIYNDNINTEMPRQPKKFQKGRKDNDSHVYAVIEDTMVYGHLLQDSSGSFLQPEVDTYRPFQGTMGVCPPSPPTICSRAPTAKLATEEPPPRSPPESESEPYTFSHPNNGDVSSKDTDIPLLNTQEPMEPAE

T2: MsCDCP1 (mouse, UniProt Q5U462 30-666)
T2 construct: extracellular domain; also called mouse CDCP1; not shown: Fc or his tag
T2 sequence (looked up): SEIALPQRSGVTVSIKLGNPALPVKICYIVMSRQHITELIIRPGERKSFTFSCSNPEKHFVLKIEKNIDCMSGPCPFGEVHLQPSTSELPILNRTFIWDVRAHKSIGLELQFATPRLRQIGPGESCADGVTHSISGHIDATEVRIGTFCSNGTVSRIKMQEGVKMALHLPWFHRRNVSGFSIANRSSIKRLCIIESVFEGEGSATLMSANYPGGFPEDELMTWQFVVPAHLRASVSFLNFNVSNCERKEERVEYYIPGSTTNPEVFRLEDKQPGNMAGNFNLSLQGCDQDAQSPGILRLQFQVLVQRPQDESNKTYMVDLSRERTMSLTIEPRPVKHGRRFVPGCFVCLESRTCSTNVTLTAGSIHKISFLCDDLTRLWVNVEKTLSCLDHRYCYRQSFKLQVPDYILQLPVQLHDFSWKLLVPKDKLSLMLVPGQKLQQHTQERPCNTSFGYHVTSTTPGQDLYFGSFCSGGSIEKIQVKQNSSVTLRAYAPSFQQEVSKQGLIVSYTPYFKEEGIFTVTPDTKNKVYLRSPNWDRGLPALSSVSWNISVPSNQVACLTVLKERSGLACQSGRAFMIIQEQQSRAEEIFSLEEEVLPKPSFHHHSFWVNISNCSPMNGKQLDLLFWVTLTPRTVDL

B1: 3C11 (antibody, V domains shown)
VH: EVQLQQSGTVLARPGASVKMSCKASGYNFISYWLHWIKQRPGQGLEWIGGIYPGNTDTTYNQKFKGKAKVTAVTSATTAYMELSSLTNEDSAVYYCIRYDYDRGMDYWGQGTTVTVSS
VL: DIQMTQSPSSFSVSLGDRVTITCRASEDIYYRLAWYQQKPGNAPRLLISGATALETGVPSRFSGSGSGKDYTLSITSLQTEDVATYYCQHYWNIPWTFGGGTKLEIK
notes: murine hybridoma mAb
B2: 3B12H5 (antibody, V domains shown)
VH: EVQLQQSGTVLARPGASVKMSCKASGYSFTIYWVHWVKQRPGQGLEWIGAVYPGNDDTSYNQNFKGKAKLTAVTSATTAYMELSSLTIDDSAVYYCTRHTYDEVFDYWGQGTTVTVSS
VL: B1 VL with Q3V, F11L, R24K, A51G, A53N, T56A, V58I, T85I, I94T
notes: murine hybridoma mAb; also called 3B12HS
B3: 8E5 (antibody, V domains shown)
VH: EVQLKESGPELKKPGETVKISCKASGYTLTDFSMHWLKQAPGKGLKWMGWINTETGAPTYADDFKGRFALSLDTSANTAYLQINNLKNEDTATYFCSRGRDYDPHFDYWGQGTTVTVSS
VL: EIVLTQSPATLSVTPGDRVSLSCRASQSISDFLHWYQQRSHESPRLLIKYASQSISGIPSRFGGSGSGSDFTLNINTVEPEDVGMYYCQSAHSFPYTFGGGTKLEIK
notes: murine hybridoma mAb; also called 8ES
B4: 6A7 (antibody, V domains shown)
VH: EVQLKESGAELVRPGASVKVSCKASGYSFTSYWMNWVKQRPGQGLEWIGMIHPSDSETKLNQKFRDRASLTVDKSSSTAYMQLSSPTSEDSAVYYCTINYESFYYAMDYWGQGTTVTVSS
VL: DIVMTQSPASLAVSLGQRATISCRASKSVSTSGYSYMHWYQQKPGQPPKLLLYLASNLESGVPARFSGSGSGADFTLNIHPVEEEDAATYYCLHSRELPYTFGGGTKLEIK
notes: murine hybridoma mAb
B5: 3F1A11 (antibody, V domains shown)
VH: EVKLVESGPGLVKPSQSLSLTCTVTGYSITSDYAWNWIRQFPGNKLEWMGYISYNTYTSYNPSLKSRISVTRDTSKNQFFLQLKSVTIEDTATYFCAGGDYYGTGAVDYWGQGTTVTVSS
VL: EIVLTQSPLSLPVSLGDQASISCRSRQTLVHTNGNTYLDWYLQKPGQSPKLLIYKVSIRFSGVPDRFSGSRSGTDFTLKISRVEAEDLGIYYCFQGSHVPWTFGGGTKLEIK
notes: murine hybridoma mAb
B6: 12E6 (antibody, V domains shown)
VH: EVQLKESGPGILQPSQTLSLTCSFSGFSLSTSGMGVGWIRQPSGKGLEWLAHIWWDDVKLYNPALKSRLTISKETSNNQVFLKIASVDAADTATYYCARIDHGYGSNYWDFDVWGAGTTVTVSS
VL: DIVMTQAAPSVPVTPGGSVSISCRSTKSLLHSDGKTYLYWFLQRPGQSPQLLIYRMSNLASGVPDRFSGSGSGTAFTLRISRVEAEDVGVYYCMQHLEYPFTFGSGTKLEIK
notes: murine hybridoma mAb
B7: G10F6 (antibody, V domains shown)
VH: EVKLVESGPGILQPSQTLSLTCSFSGFSLSTSGMGVSWVRQPSGKGLEWLAHIYWDDDKRYNPSLKGRLTISKDTPRNQVFLEITSVDTTDTATYYCARVPGNWDEDAMDYWGQGTTVTVSS
VL: DIQMTQSPLSLPVSLGDQASISCRSSQNIVHTNGNTYLEWYLQKVGQSPKLLIYKVSNRFSGVPDRFSGSGSGTDFTLKISRVEAEDLGVYYCFQGSHVPYTFGGGTKLEIK
notes: murine hybridoma mAb
B8: 14A10C5 (antibody, V domains shown)
VH: EVKLVESGPGILQPSQTLSLTCSFSGFSLSTSGMGVSWIRQPSGKGLEWLAHIYWDDEKRYNPSLKSRLTISKDTSSNQVFLKITSVDTADTATYYCAREGSANWEAMDYWGQGTTVTVSS
VL: B7 VL with Q3V, S7A, P8A, H31Y, N35I, V45P, G73A, G96S, Y101W
notes: murine hybridoma mAb; also called 14A10CS
B9: 10D2 (antibody, V domains shown)
VH: EVQLQQSGPELKKPGETVKISCKASGYTFTDYSMHWVKQAPGKGLKWMGWINTETGQPTYADDFKGRFAFSLETSASSAYLQINNLKNEDTATYFCTRTFYYDYVGDYWGQGTTVTVSS
VL: DIVMTQSHKFMSTSVGDRVSITCKASQDVSTAVAWYRQKPGQSPKLLIYWASTRHTGVPDRLTGSGSGTDFALTINSVQAEDLALYYCQQHSSTPYTFGGGTKLEIK
notes: murine hybridoma mAb
B10: 5B8 (antibody, V domains shown)
VH: EVQLKESGGGLVQPGGSLRISCATSGLTFTHYHMSWVRQPPGKAPEWLAIIRNKAYGYTTDYSASVRGRFTISRDDSQSILYLQMNTLRAEDSATYYCVREGGYGYDGTFAYWGQGTTVTVSS
VL: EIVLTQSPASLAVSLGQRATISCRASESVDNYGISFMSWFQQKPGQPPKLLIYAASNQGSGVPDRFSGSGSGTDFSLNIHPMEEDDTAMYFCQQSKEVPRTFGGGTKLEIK
notes: murine hybridoma mAb
B11: 8C9 (antibody, V domains shown)
VH: B10 VH with A90P
VL: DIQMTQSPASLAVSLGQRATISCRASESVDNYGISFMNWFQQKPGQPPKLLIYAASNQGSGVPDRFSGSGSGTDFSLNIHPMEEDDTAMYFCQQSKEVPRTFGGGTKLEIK
notes: murine hybridoma mAb

Target: T1, human CDCP1 on tumor cells
Test: flow cytometry, PC3 cells
Method: (§1) Flow cytometry was used to detect the binding capacity of antibody to tumor cells. […] 2.0×10⁴ tumor cells were added per well, respectively, and 50 μL (PBS+2% FBS) were added, and after blocking at room temperature with an Fe blocker (Human TruStain FcX™, Biolegend, 422302) for 10 mins, an anti-CDCP1 murine monoclonal antibody at a final concentration of 200 nM was added. The obtained mixture was subjected to a 3-fold serial dilution across 8 concentration points, and incubated at 4° C. for 30 mins, and then incubated with a secondary antibody (PE anti-human IgG Fc Antibody, Biolegend, 410708), detection was performed using a flow cytometer.

EC50 [nM] | Binder
0.23 | B1
0.55 | B2
0.63 | B3
1.35 | B4
0.41 | B5
10.1 | B6
0.23 | B7
0.1 | B8
2.54 | B9
0.91 | B10
0.4 | B11

Target: T1, human CDCP1 on tumor cells
Test: flow cytometry, MDA-MB-231 cells
Method: as §1

EC50 [nM] | Binder
0.27 | B1
0.47 | B2
0.67 | B3
1.72 | B4
85.5 | B6
0.19 | B7
0.49 | B9
0.93 | B10
0.47 | B11

Target: T2, MsCDCP1
Test: SPR (Caterra or Biacore), antigen immobilized

EC50 [nM] | Binder | binding result
– | B1 | no binding (tested: 150 nM highest concentration)
– | B2 | no binding (tested: 150 nM highest concentration)
– | B3 | no binding (tested: 150 nM highest concentration)
27.5 | B4 | –
– | B5 | no binding (tested: 150 nM highest concentration)
4010 | B6 | –
– | B7 | no binding (tested: 150 nM highest concentration)
– | B8 | no binding (tested: 150 nM highest concentration)
– | B9 | no binding (tested: 150 nM highest concentration)
– | B10 | no binding (tested: 150 nM highest concentration)
– | B11 | no binding (tested: 150 nM highest concentration)

— patent US20260250410A1 (SICHUAN HUIYU PHARMACEUTICAL, published 2026)
